Measurements from patent publication US20190185537A1 (AstraZeneca / MedImmune, published 2019).
Like-named read-outs stand apart in the source and are kept apart here. Numbered stars: 1 amine (or outer) side, 2 acyl side, 3 side chain; on linkers, the order of the positions; unused ones are H or OH. Side chains are listed from the residue outwards. Ends that are not written are not given here. * marks the point of attachment. γGlu = O=C(O)[C@H](CCC(=O)[*:2])N[*:1]; Palmitoyl = CCCCCCCCCCCCCCCC(=O)*

T1: rat GLP-1 receptor (rat, UniProt P32301 22-463)
T1 sequence (looked up): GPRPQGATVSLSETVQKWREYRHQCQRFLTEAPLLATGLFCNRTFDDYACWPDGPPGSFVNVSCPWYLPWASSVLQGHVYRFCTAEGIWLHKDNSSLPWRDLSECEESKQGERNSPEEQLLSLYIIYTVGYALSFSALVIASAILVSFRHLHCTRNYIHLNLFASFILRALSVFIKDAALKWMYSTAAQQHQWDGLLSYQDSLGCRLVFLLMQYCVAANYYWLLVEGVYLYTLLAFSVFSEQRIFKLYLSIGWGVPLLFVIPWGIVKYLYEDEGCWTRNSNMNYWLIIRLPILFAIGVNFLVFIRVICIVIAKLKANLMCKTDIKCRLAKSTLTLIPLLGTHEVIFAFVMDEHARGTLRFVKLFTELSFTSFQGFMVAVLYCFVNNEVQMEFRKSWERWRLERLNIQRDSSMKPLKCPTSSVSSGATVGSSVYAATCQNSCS

T2: mouse GLP-1 receptor (mouse, UniProt O35659 22-463)
T2 sequence (looked up): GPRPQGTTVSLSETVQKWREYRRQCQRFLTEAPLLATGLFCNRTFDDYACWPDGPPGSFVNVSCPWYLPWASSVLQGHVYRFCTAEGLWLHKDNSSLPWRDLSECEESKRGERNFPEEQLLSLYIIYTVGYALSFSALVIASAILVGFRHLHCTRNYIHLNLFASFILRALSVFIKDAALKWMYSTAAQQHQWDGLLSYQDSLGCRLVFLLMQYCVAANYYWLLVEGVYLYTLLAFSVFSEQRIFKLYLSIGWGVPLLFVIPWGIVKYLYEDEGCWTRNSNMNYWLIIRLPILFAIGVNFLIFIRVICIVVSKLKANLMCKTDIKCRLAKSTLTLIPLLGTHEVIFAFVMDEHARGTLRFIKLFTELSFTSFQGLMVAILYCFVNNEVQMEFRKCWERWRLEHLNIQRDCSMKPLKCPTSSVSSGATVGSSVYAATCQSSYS

T3: human glucose-dependent insulinotropic peptide (gastric inhibitory polypeptide) receptor (human, UniProt P48546 22-466)
T3 sequence (looked up): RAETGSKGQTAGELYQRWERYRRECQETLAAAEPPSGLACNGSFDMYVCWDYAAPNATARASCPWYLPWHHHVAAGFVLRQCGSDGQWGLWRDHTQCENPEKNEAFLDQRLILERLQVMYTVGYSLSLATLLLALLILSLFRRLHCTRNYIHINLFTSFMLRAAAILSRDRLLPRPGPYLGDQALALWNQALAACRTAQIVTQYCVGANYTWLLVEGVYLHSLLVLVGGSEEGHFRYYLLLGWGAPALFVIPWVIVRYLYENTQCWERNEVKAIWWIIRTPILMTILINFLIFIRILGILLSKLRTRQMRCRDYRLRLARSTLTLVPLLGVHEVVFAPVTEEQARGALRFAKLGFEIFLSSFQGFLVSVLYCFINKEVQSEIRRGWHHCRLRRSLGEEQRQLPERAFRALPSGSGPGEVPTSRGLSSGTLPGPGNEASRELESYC

T4: human glucose-dependent insulinotropic peptide (gastric inhibitory polypeptide) receptor (human) (UniProt P48546)
T4 sequence (looked up): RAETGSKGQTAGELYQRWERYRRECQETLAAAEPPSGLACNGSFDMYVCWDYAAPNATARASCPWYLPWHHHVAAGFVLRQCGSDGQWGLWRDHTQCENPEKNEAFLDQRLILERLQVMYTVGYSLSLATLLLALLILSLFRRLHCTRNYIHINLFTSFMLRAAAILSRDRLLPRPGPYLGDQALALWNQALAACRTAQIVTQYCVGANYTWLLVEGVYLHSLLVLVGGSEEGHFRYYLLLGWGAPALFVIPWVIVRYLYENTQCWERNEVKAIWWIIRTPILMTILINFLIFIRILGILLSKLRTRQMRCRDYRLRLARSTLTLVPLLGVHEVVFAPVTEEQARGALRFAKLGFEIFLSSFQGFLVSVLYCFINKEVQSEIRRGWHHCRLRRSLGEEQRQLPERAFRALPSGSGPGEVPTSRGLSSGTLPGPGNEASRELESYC


What was measured:
Assay in all cases: cell-based or functional assay
[1] = biological target: human glucagon receptor (human) (UniProt P47871)
human glucagon receptor (human), sequence (P47871 26-477): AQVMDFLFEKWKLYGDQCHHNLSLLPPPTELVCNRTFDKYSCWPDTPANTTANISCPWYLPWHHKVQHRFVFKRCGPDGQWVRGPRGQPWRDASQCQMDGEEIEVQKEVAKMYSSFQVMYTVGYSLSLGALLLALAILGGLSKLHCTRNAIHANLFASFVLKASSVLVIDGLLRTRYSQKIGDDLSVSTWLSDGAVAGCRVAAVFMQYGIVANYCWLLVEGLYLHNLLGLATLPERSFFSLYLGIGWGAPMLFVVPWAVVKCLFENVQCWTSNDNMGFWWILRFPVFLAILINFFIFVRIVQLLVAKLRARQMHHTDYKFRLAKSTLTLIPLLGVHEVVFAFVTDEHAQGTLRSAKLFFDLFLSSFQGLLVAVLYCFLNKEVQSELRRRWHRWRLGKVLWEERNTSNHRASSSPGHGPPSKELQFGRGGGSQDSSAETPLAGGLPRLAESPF

[2] = biological target: human GLP-1 receptor (human) (UniProt P43220)
human GLP-1 receptor (human), sequence (P43220 24-463): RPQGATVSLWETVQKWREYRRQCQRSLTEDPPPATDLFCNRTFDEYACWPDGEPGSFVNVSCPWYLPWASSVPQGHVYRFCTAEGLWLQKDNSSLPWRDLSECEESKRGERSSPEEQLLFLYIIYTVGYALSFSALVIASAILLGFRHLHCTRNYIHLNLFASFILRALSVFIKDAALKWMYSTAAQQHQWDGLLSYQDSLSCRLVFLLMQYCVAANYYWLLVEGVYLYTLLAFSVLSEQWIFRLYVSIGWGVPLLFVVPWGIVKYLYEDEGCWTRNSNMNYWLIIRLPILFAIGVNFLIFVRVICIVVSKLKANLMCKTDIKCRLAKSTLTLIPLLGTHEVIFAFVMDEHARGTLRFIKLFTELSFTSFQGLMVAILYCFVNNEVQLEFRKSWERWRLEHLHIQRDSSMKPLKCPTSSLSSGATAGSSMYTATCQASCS

[3] = biological target: rat glucagon receptor (rat, UniProt P30082 27-485)
rat glucagon receptor, sequence (P30082 27-485): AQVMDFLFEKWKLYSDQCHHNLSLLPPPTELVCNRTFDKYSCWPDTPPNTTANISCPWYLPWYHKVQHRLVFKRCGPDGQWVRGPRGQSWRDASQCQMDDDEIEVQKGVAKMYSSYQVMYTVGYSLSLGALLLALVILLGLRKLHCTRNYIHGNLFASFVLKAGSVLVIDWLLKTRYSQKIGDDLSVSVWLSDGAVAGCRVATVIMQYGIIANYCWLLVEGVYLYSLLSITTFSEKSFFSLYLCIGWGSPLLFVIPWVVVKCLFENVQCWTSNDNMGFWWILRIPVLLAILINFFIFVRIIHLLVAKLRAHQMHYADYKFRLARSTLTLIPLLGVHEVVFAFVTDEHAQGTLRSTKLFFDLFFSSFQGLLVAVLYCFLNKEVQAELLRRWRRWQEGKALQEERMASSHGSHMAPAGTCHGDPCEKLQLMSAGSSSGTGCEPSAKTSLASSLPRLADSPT

[4] = biological target: T1, rat GLP-1 receptor
[5] = biological target: mouse glucagon receptor (mouse, UniProt Q61606 27-485)
mouse glucagon receptor, sequence (Q61606 27-485): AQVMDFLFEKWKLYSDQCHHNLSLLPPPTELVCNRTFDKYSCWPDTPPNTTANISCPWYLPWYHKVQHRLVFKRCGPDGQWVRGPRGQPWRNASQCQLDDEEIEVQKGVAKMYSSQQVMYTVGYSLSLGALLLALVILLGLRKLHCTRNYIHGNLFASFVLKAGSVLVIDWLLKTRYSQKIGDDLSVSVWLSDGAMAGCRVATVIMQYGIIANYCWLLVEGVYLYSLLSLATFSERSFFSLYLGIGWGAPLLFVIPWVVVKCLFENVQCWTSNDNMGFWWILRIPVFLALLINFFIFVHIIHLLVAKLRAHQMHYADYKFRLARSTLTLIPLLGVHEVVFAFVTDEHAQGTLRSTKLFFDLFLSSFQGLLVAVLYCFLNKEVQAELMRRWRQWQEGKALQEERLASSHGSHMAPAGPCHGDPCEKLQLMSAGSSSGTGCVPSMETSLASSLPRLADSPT

[6] = biological target: T5, human GLP-1 receptor (human, UniProt P43220 24-463)
[7] = biological target: T6, human glucagon receptor (human, UniProt P47871 26-477)
T6 sequence (P47871 26-477): as the sequence (P47871 26-477) above

[8] = biological target: T2, mouse GLP-1 receptor
[9] = biological target: T3, human glucose-dependent insulinotropic …
[10] = biological target: T5, human GLP-1 receptor; remark: listed apart in the source
[11] = biological target: T6, human glucagon receptor; remark: listed apart in the source
[12] = biological target: T3, human glucose-dependent insulinotropic …; remark: listed apart in the source
[13] = biological target: T5, human GLP-1 receptor; remark: listed apart in the source
[14] = biological target: T6, human glucagon receptor; remark: listed apart in the source
[15] = biological target: T4, human glucose-dependent insulinotropic peptide (gastric inhibitory polypeptide) receptor (human)

Binder | cAMP EC50 (assay 1) [1] [nM] | cAMP EC50 (assay 1) [2] [nM] | cAMP EC50 (assay 2, 3.2% rat serum albumin) [3] [nM] | cAMP EC50 (assay 2, 3.2% rat serum albumin) [4] [nM] | cAMP EC50 (assay 2, 3.2% mouse serum albumin) [5] [nM] | cAMP EC50 (assay 2, 4.4% human serum albumin) [6] [nM] | cAMP EC50 (assay 2, 4.4% human serum albumin) [7] [nM] | cAMP EC50 (assay 2, 3.2% mouse serum albumin) [8] [nM] | cAMP EC50 (assay 1) [9] [nM] | cAMP EC50 (assay 1) [10] [nM] | cAMP EC50 (assay 1) [11] [nM] | cAMP EC50 (assay 1) [12] [nM] | cAMP EC50 (assay 1) [13] [nM] | cAMP EC50 (assay 1) [14] [nM] | cAMP EC50 (assay 1) [15] [nM]
HSQGTFTSDYSKYLDSRRAQDFVQWLVAGGPSSGAPPPSK-NH2 [g319] | 0.0104 | 0.0361 | – | – | – | – | – | – | – | – | – | – | – | – | –
HSQGTFTSDKSSYLDSRRARDFVAWLEAGG (X10 = K(gE-palm); C-terminal amide) [G796] | – | – | 2 | 0.023 | 0.034 | 0.14 | 0.053 | 0.13 | 14 | 0.013 | 0.00176 | 17.4 | 0.014 | 0.00181 | –
HGQGTFTSDYSKYLDSK([γGlu-Palmitoyl])RAQDFVQWLVAGG-NH2 (N-terminus assumed; SMILES CCCCCCCCCCCCCCCC(=O)N[C@@H](CCC(=O)NCCCC[C@H](NC(=O)[C@H](CO)NC(=O)[C@H](CC(=O)O)NC(=O)[C@H](CC(C)C)NC(=O)[C@H](Cc1ccc(O)cc1)NC(=O)[C@H](CCCCN)NC(=O)[C@H](CO)NC(=O)[C@H](Cc1ccc(O)cc1)NC(=O)[C@H](CC(=O)O)NC(=O)[C@H](CO)NC(=O)[C@@H](NC(=O)[C@H](Cc1ccccc1)NC(=O)[C@@H](NC(=O)CNC(=O)[C@H](CCC(N)=O)NC(=O)CNC(=O)[C@@H](N)Cc1c[nH]cn1)[C@@H](C)O)[C@@H](C)O)C(=O)N[C@@H](CCCNC(=N)N)C(=O)N[C@@H](C)C(=O)N[C@@H](CCC(N)=O)C(=O)N[C@@H](CC(=O)O)C(=O)N[C@@H](Cc1ccccc1)C(=O)N[C@H](C(=O)N[C@@H](CCC(N)=O)C(=O)N[C@@H](Cc1c[nH]c2ccccc12)C(=O)N[C@@H](CC(C)C)C(=O)N[C@H](C(=O)N[C@@H](C)C(=O)NCC(=O)NCC(N)=O)C(C)C)C(C)C)C(=O)O) [G380] | – | – | – | – | 576 | 6.54 | 53.6 | 15 | 130 | 0.077 | 0.217 | 609 | 0.1 | 0.362 | –
HSQGTFTSDYSKYLDSRRAQDFVQWLVAGGPSSGAPPPSK(Palmitoyl)-NH2 [g320] | 0.0032 | 0.00938 | – | – | – | – | – | – | – | – | – | – | – | – | 1.01
